Assay results: US8394929B2, “Nogo receptor-mediated blockade of axonal growth” (Yale University, priority 2000, dated 2013)
Read-outs that look alike come from different tables or passages of the source.

Key:
[1] = system: TPA-induced growth cone collapse; assay: TPA-induced growth cone collapse in E12 chick DRG explants; format: cell-based
Procedure: For further testing, a synthetic peptide containing amino acid residues #1055-1094 of hNgR, acetylated at the […] was used [hereinafter “Peptide 140”]. […] Antagonist of Nogo-66 inhibitory activity may act by competing for, and thereby blocking NgR binding sites. To determine the antagonistic activity of Peptide 140, the above synthetic form of the peptide was added to E12 chick DRG explant cultures approximately 10 min before application of various concentrations of GST-NogoA (residues #1055-1120), TPA or Sema3A. 30 min later, cultures were fixed and growth cone collapse was assessed following staining with rhodamine-phalloidin.

mouse NgR = target: T1, mouse NgR (Mus musculus, UniProt Q99PI8); assay: AP-fusion protein binding to COS-7 cells expressing mouse NgR
T1 construct: expressed in transfected cells; host or cells: COS-7
T1 sequence (Q99PI8 27-473): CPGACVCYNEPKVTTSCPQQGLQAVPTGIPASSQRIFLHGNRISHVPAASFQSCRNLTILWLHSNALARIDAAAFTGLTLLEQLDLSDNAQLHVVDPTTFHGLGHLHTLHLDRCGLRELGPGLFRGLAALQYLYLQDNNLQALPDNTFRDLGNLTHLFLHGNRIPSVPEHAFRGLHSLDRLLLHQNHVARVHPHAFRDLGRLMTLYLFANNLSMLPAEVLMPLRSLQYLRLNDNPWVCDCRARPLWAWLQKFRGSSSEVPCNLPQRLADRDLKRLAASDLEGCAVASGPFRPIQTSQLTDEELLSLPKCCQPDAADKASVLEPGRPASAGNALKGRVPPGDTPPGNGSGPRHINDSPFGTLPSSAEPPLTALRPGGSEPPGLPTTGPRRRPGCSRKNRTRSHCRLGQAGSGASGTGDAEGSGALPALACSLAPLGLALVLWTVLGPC
Procedure: To determine if AP-fused deletion mutants of Nogo-66 bind mouse NgR (“mNgR”), COS-7 cells were transfected with a plasmid encoding the mouse NgR sequence ligated into pcDNA3.1. 48 hours after transfection, cells were washed with HBH (Hanks balanced salt solution containing 20 mM sodium Hepes, pH 7.05, and 1 mg ml^−1 bovine serum albumin) and then incubated with condition medium containing one of the AP-fusion proteins described above for 2 hours at 37° C. Cells were then washed, fixed, and left in HBH at 67° C. for 14-16 h to inactivate endogenous AP. AP-fusion protein binding to NgR expressing COS-7 cells was detected with the substrates NBT and BCIP (FIG. 13b).
To determine whether mNgR or mNgR deletion mutants bound to hNogo-A (1055-1120), wtNgR or mNgR deletion mutants were transfected into COS-7 cells. Forty-eight hours after the transfection, the transfected COS-7 cells were washed with hanks balanced salt solution containing 20 mM sodium HEPES, pH 7.05, and 1 mg/ml bovine serum albumin (BSA) [hereinafter “HBH”]. Cells were then incubated for 2 hours at 23° C. with a conditioned medium enriched with purified AP-hNogo-A (1055-1120) diluted in HBH. AP-fusion protein was detected as previously described for AP-Sema3A (Takahashi et al., Nature Neurosci. 1:487-493, 1998).

[2] = system: dorsal root ganglion neurons; assay: Cell survival in GST-Nogo-treated DRG cultures; format: cell-based, chick
Source text: The nanomolar potency is on a par with most known physiologic regulators of axon guidance.

NgRL1 chimeric receptor = target: T2, NgRL1 chimeric receptor (Mus musculus, UniProt P11627+Q99PI8); assay: Growth cone collapse in E7 retinal ganglion cells infected with NgRL1; format: cell-based
T2 construct: L1NgR encodes residues 1-451 of mouse NgR fused to the transmembrane and cytoplasmic tail of mouse L1; expressed in transfected cells; host or cells: chick E7 retinal ganglion cells infected with recombinant HSVL1NgR
Procedure: Growth cone collapse in response to GST-hNogo-A (1055-1120) was investigated in infected RGC cultures. Retinal explants infected with recombinant viral preparations of PlexinA1 (PlexA1), wild-type NgR (wtNgR), NgRL1 chimeric receptor in which the GPI domain has been replaced by the transmembrane region and cytoplasmic tail from the mouse adhesion protein L1 (NgRL1), or NgR carboxy terminal deletion mutant (NgRΔCT) for 12 hr. Following infection, the cells were treated for 30 min with 0, 50, 250, or 500 nM GST-hNogo-A (1055-1120) (GrandPre et al., Nature 403: 439-444, 2000), fixed with 4% paraformaldehyde with 0.1 M PO4 and 20% sucrose, and stained with phalloidin. […] Cells infected with NgRΔCT were insensitive to GST-hNogo-A (1055-1120). The CT region of NgR is therefore required for effective NgR inhibitory signaling.
To test the signaling capability of NgRLI, recombinant HSVL1NgR preparations were produced and used to infect E7 RGCs. Infected RGCs were treated with GST-hNogo-A (1055-1120) and growth cone collapse was assessed (FIG. 20). […] Because the intracellular signals induced by Nogo have not been elucidated, it remains to be determined if ligand binding effects signaling events at caveolar microdomains.

T2 sequence (Q99PI8+P11627 fused, change not shown): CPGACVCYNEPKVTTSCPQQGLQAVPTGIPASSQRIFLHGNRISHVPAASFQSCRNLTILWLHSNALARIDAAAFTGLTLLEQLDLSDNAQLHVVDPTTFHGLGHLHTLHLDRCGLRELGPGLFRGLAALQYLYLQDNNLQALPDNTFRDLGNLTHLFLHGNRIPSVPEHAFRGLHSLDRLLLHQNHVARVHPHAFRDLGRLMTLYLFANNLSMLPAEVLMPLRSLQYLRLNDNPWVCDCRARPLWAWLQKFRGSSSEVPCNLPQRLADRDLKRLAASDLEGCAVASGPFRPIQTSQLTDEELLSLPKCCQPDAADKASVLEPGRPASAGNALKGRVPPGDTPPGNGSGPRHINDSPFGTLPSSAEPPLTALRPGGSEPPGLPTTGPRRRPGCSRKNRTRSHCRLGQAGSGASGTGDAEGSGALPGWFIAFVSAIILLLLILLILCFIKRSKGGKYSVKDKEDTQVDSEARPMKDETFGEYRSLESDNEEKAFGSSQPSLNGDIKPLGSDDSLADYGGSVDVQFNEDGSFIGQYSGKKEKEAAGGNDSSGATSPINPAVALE

Peptide 140: synthetic peptide of amino acids #1055-1094 of the human NogoA protein, acetylated and amidated at the termini (Ac-RIYKGVIQAIQKSDEGHPFRAYLESEVAISEELVQKYSNS-NH2; UniProt Q9NQC3 1055-1094, looked up, fragment)
effect on TPA-induced growth cone collapse (in words) [1]: no significant reduction in collapse

B1: AP-Nogo: fusion protein of His6 tag, placental alkaline phosphatase (AP) and the 66 amino acid active domain of Nogo (protein)
chain: HHHHHHIIPVEEENPDFWNREAAEALGAAKKLQPAQTAAKNLIIFLGDGMGVSTVTAARILKGQKKDKLGPEIPLAMDRFPYVALSKTYNVDKHVPDSGATATAYLCGVKGNFQTIGLSAAARFNQCNTTRGNEVISVMNRAKKAGKSVGVVTTTRVQHASPAGTYAHTVNRNWYSDADVPASARQEGCQDIATQLISNMDIDVILGGGRKYMFRMGTPDPEYPDDYSQGGTRLDGKNLVQEWLAKRQGARYVWNRTELMQASLDPSVTHLMGLFEPGDMKYEIHRDSTLDPSLMEMTEAALRLLSRNPRGFFLFVEGGRIDHGHHESRAYRALTETIMFDDAIERAGQLTSEEDTLSLVTADHSHVFSFGGYPLRGSSIFGLAPGKARDRKAYTVLLYGNGPGYVLKDGARPDVTESESGSPEYRQQSAVPLDEETHAGEDVAVFARGPQAHLVHGVQEQTFIAHVMAFAACLEPYTACDLAPPAGTTDAAHPGRIYKGVIQAIQKSDEGHPFRAYLESEVAISEELVQKYSNSALGHVNCTIKELRRLFLVDDLVDSLK
binding to NgR expressing COS-7 cells (in words) (mouse NgR): selective binding | binding to NgR expressing COS-7 cells (in words) (mouse NgR; listed as AP-hNogo-A (1055-1120)): bound

B2: GST-Nogo: GST fusion protein of the 66 amino acid lumenal-extracellular fragment of Nogo-A, expressed in E. coli (protein)
chain: RIYKGVIQAIQKSDEGHPFRAYLESEVAISEELVQKYSNSALGHVNCTIKELRRLFLVDDLVDSLK
modifications: also: GST fusion protein
notes: GST fusion protein of the 66 amino acid lumenal-extracellular fragment of Nogo-A, expressed in E. coli
number of neurofilament-positive adherent cells [2]: 137±24 % of GST-treated cultures | apoptotic nuclei identified by DAPI staining ([2]; GST-Nogo-treated specimens): 5.2±1.1% | growth cone collapse response (in words) (NgRL1 chimeric receptor; 50 nM GST-hNogo-A (1055-1120)): not responsive | growth cone collapse response (in words) (NgRL1 chimeric receptor; high concentrations of GST-hNogo-A (1055-1120)): transduces Nogo signals as efficiently as wtNgR
